Patent US11994512B2, “Single-cell genomic methods to generate ex vivo cell systems that recapitulate in vivo biology with improved fidelity” (Massachusetts Institute of Technology, priority 2018, dated 2024)

B1: Q8K023 (protein, UniProt Q8K023 1-323, looked up)
chain: MNSKIQKIELNDGHSIPVLGFGTYATEEHLKKKSMESTKIAIDVGFCHIDCSHLYQNEEEIGQAILSKIEDGTVKREDIFYTSKLWSTSHRPELVRPSLENSLRKLNLDYVDLYLIHFPVSLKPGNELLPKDEHGNLIFDTVDLCDTWEAMEKCKDAGLAKSIGVSNFNRRQLEMILNKPGLKYKPVCNQVECHLYLNQSKLLAYCKMNDIVLVAYGALGTQRYKYCINEDTPVLLDDPVLCAMAKKYKRTPALIALRYQLDRGIVALAKSFNEERIRENMQVFDFQLASDDMKILDGLDRNLRYFPADMFKAHPNFPFFDEY
modifications: full-length
B2: Q8K4B2 (protein, UniProt Q8K4B2 1-609, looked up)
chain: MAGRCGARGALSPQLLLFDLPPALLGELCGILDSCDGPLGWRGLAERLSNSWLDVRHIEKYVNQGKSGTRELLWSWAQKNKTIGDLLEVLQDMGHQRAIHLIINYGVSWTPSVQTHHELPFPSFPPEVKHACRENDPGPLEPANVTVDNVLVPEHNEKGTLQKTPISFQSILEGTKHFHKDFLIGEGEIFEVYRVDIRNQAYAVKLFKQEKKMQLKKHWKRFLSELEVLLLFRHPHILELAAYFTETEKLCLVYPYMSNGTLFDRLQCTNGTTPLSWHVRISVLIGIAKAIQYLHNTQPCAVICGNVSSANILLDDQLQPKLTDFAAAHFRPNLEQQSSTINMTGGGRKHLWYMPEEYIRQGRLSVKTDVYSFGIVIMEVLTGCKVVLDDPKHVQLRDLLMELMEKRGLDSCLSFLDRKIPPCPRNFSAKLFSLAGRCVATKAKLRPTMDEVLSSLESTQPSLYFAEDPPTSLKSFRCPSPLFLDNVPSIPVEDDENQNNHSVPPKEVLGTDRVTQKTPFECSQSEVTFLGLDRNRGNRGSEADCNVPSSSHEECWSPELVAPSQDLSPTVISLGSSWEVPGHSYGSKPMEKRCSSGLFCSEHEQSKKQ
modifications: full-length
B3: Q8K354 (protein, UniProt Q8K354 1-277, looked up)
chain: MSSCSRVALVTGANKGIGFAITRDLCRKFSGDVVLTARDEARGRAAVQQLQAEGLSPRFHQLDIDDPQSIRALRDFLRKEYGGLNVLVNNAGIAFRMDDPTPFDIQAEVTLKTNFFATRNVCTELLPIMKPHGRVVNISSLQGLKALENCREDLQEKFRCDTLTEVDLVDLMKKFVEDTKNEVHEREGWPDSAYGVSKLGVTVLTRILARQLDEKRKADRILLNACCPGWVKTDMARDQGSRTVEEGAETPVYLALLPPDATEPHGQLVRDKVVQTW
modifications: full-length
B4: Q8K4R4 (protein, UniProt Q8K4R4 1-332, looked up)
chain: MLLKEYRICMPLTVDEYKIGQLYMISKHSHEQSDRGEGVEVVQNEPFEDPHHGNGQFTEKRVYLNSKLPSWARAVVPKIFYVTEKAWNYYPYTITEYTCSFLPKFSIHIETKYEDNKGSNDSIFDSEAKDLEREVCFIDIACDEIPERYYKESEDPKHFKSEKTGRGQLREGWRDNHQPIMCSYKLVTVKFEVWGLQTRVEQFVHKVVRDILLIGHRQAFAWVDEWYDMTMDEVREFERATQEATNKKIGVFPPAISISSIALLPSSVRSAPSSAPSTPLSTDAPEFLSIPKDRPRKKSAPETLTLPDPEKKATLNLPGVYTSEKPCRPKSE
modifications: full-length

system: intracellular proteome of ENR+CD and ENR organoids; assay: LC-MS/MS TMT proteomics of ENR+CD versus ENR organoids; format: cell-based, C57BL/6 mice; conditions: ENR+CD versus ENR organoids, sample pairs in aggregate (n=4, 2 technical replicates from two biological donors)

First: B1
Second: B2
The “Average logFC” value of the first is lower: −1.451 for the first, 1.198 for the second.

First: B3
Second: B4
The “Average logFC” value of the first is lower: −1.221 for the first, 1.235 for the second.

same assay, conditions: protein abundance ratio ENR+CD versus ENR organoids, sample pair M1-1; LC-MS/MS TMT proteomics

Compared with B1, B2 is higher in “M1-1 Log2 Median Normalized” value: −1.063 for the first, 1.448 for the second.

First: B3
Second: B4
The “M1-1 Log2 Median Normalized” value of the first is lower: −1.154 for the first, 1.072 for the second.

same assay, conditions: protein abundance ratio ENR+CD versus ENR organoids, sample pair M1-2; LC-MS/MS TMT proteomics

Compared with B1, B2 is higher in “M1-2 Log2 Median Normalized” value: −0.99 for the first, 0.943 for the second.

Going from B3 to B4, the “M1-2 Log2 Median Normalized” value rises from −1.435 to 0.913.

same assay, conditions: protein abundance ratio ENR+CD versus ENR organoids, sample pair M2-1; LC-MS/MS TMT proteomics

First: B1
Second: B2
The “M2-1 Log2 Median Normalized” value of the first is lower: −1.9945 for the first, 1.1955 for the second.

First: B3
Second: B4
The “M2-1 Log2 Median Normalized” value of the first is lower: −1.8555 for the first, 1.6335 for the second.

same assay, conditions: protein abundance ratio ENR+CD versus ENR organoids, sample pair M2-2; LC-MS/MS TMT proteomics

First: B1
Second: B2
The “M2-2 Log2 Median Normalized” value of the first is lower: −1.758 for the first, 1.204 for the second.

Compared with B3, B4 is higher in “M2-2 Log2 Median Normalized” value: −0.441 for the first, 1.321 for the second.

same assay, conditions: up = enriched in ENR+CD, down = enriched in ENR; FDR<0.05 and log fold change cut-off

In the case of B1, the change is reported as “down”.
B2 was tested, and the change was “up”.
B3 was tested, and the change was “down”.
With B4 the change was “up”.
